Biological target: T1, FLAG-tagged human LMAN1, wild type (pED-FLAG-LMAN1) (human, UniProt P49257 31-510)
T1 sequence (looked up): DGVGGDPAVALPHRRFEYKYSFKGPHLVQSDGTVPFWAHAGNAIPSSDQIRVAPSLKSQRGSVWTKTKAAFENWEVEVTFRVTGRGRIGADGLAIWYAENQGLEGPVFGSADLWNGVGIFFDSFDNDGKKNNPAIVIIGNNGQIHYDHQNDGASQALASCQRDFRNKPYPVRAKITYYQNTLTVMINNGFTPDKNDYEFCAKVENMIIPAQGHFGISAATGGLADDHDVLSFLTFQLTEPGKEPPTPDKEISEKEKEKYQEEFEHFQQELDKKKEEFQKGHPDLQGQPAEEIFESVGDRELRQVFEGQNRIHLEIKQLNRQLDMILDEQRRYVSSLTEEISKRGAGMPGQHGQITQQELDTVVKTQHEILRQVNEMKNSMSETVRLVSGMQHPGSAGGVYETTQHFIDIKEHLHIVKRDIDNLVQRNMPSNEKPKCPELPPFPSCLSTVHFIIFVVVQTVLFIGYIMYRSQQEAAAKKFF
Assay: flow cytometry on cells

B1: Der p 1 (Dermatophagoides pteronyssinus major mite allergen 1), biotinylated (natural protein, UniProt P08176 99-320, looked up)
chain: TNACSINGNAPAEIDLRQMRTVTPIRMQGGCGSCWAFSGVAATESAYLAYRNQSLDLAEQELVDCASQHGCHGDTIPRGIEYIQHNGVVQESYYRYVAREQSCRRPNAQRFGISNYCQIYPPNVNKIREALAQTHSAIAVIIGIKDLDAFRHYDGRTIIQRDNGYQPNYHAVNIVGYSNAQGVDYWIVRNSWDTNWGDNGYGYFAANIDLMMIEEYPYVVIL
modifications: biotinylated
B1: binds.
